Laboratory results reported in publication PMC3488000.
Values belong to the substance of their own block, whether it stands above or below them.

How the values were obtained:
Test in all cases: SEC; Superdex 200 on an AKTA FPLC, 20 mM Tris, 1M NaCl, pH 8.0; column calibrated with globular protein standards; oligomeric state = estimated net mass divided by the calculated monomer mass (16.3 kDa)
[1] = molecular target: FbFP F37S (Pseudomonas putida KT2440) (UniProt Q88JB0)
[2] = molecular target: FbFP F37T (Pseudomonas putida KT2440) (UniProt Q88JB0)
[3] = molecular target: flavin-binding fluorescent protein (FbFP) from Pseudomonas putida (Pseudomonas putida KT2440) (UniProt Q88JB0)

- stoichiometry N [1]: 1.78
Substance: FbFP F37S (from UniProt Q88JB0 1-151) (natural protein)

- stoichiometry N [2]: 1.87
Substance: FbFP F37T (from UniProt Q88JB0 1-151) (natural protein)

- stoichiometry N [3]: 1.81
Substance: flavin-binding fluorescent protein (FbFP) from Pseudomonas putida (from UniProt Q88JB0 1-151) (natural protein)
